± gives the standard error. Variants at the floor of the assay were thinned out.
B1: glmS ribozyme (parent)
chain: AUAAAAGCGCCAGAACUACAGAAAUGUAGUUGACGAGGAGGAGGUUUAUCGAAUUUUCGGCGGAUGCCUCCAAA

Key:
Conditions in all cases: with glucosamine-6-phosphate
[1] = variants of: B1; experiment: self-cleavage kobs at 40 uM GlcN6P; higher = faster cleavage; RNA array
Outline: (§1)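 The measurements used barcoded ribozyme variants on sequenced MiSeq chips, transcribed in situ by E. coli RNA polymerase and tracked at 37 °C with a hybridised Cy3 probe. Glucosamine-6-phosphate, 40 μM to 10 mM in HEPES/KCl/Mg(OAc)2 buffer, was flowed in while tiles were imaged over ~14 h. Baseline-normalised signals, also normalised to non-cleaving reference variants, gave per-tile medians that were fit to one- or two-exponential decays for kobs. kcat and KM resulted from weighted Michaelis–Menten fits across concentrations.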

[2] = variants of: B1; experiment: self-cleavage kobs at 160 uM GlcN6P; higher = faster cleavage; RNA array
Outline: as §1

[3] = variants of: B1; experiment: self-cleavage kobs at 10000 uM GlcN6P; higher = faster cleavage; RNA array
Outline: as §1

[4] = variants of: B1; experiment: self-cleavage kobs at 2500 uM GlcN6P; higher = faster cleavage; RNA array
Outline: as §1

[5] = variants of: B1; experiment: self-cleavage kobs at 640 uM GlcN6P; higher = faster cleavage; RNA array
Outline: as §1

Row | Variant | self-cleavage kobs at 40 uM GlcN6P [1] | self-cleavage kobs at 160 uM GlcN6P [2] | self-cleavage kobs at 10000 uM GlcN6P [3] | self-cleavage kobs at 2500 uM GlcN6P [4] | self-cleavage kobs at 640 uM GlcN6P [5]
1 | G9A U56G | < 1e-05 s⁻¹ | < 1e-05 s⁻¹ | – | – | –
2 | C8G G13U G51C A64G | < 1e-05 s⁻¹ | – | – | – | –
3 | C8U C50G C58G C71U | 0.000808 ± 0.00019 s⁻¹ | – | 0.000113 ± 2.1e-05 s⁻¹ | – | –
4 | C8A U45G U69C C71G | < 1e-05 s⁻¹ | – | – | – | –
5 | G9A C10A G32A | < 1e-05 s⁻¹ | – | – | – | –
6 | G9A G13A C34G U49C C68U | < 1e-05 s⁻¹ | – | – | – | –
7 | G9A A39C | < 1e-05 s⁻¹ | < 1e-05 s⁻¹ | – | < 1e-05 s⁻¹ | –
8 | C8G U55C C61U | < 1e-05 s⁻¹ | – | – | < 1e-05 s⁻¹ | < 1e-05 s⁻¹
9 | C8A A53G G63A | < 1e-05 s⁻¹ | – | – | – | < 1e-05 s⁻¹
10 | G7U G29A A48G | < 1e-05 s⁻¹ | – | < 1e-05 s⁻¹ | – | –
11 | C8G G63C | < 1e-05 s⁻¹ | < 1e-05 s⁻¹ | – | < 1e-05 s⁻¹ | < 1e-05 s⁻¹
12 | G9A A14C G41U U55C | < 1e-05 s⁻¹ | – | – | – | –
13 | C8U G9C C10A G37U G40U G41A C50U | < 1e-05 s⁻¹ | – | – | – | –
14 | C8U C16A | < 1e-05 s⁻¹ | – | < 1e-05 s⁻¹ | < 1e-05 s⁻¹ | < 1e-05 s⁻¹
15 | C8U G9A A15C A36G U49C U57G | < 1e-05 s⁻¹ | – | – | – | –
16 | C8G G9A A39U U47G C68U | < 1e-05 s⁻¹ | – | – | – | –
17 | G7U G35A | < 1e-05 s⁻¹ | < 1e-05 s⁻¹ | < 1e-05 s⁻¹ | < 1e-05 s⁻¹ | < 1e-05 s⁻¹
18 | G7U G35C | < 1e-05 s⁻¹ | < 1e-05 s⁻¹ | < 1e-05 s⁻¹ | < 1e-05 s⁻¹ | < 1e-05 s⁻¹
19 | C8U C11U A12C A48G G62A C67U | < 1e-05 s⁻¹ | – | < 1e-05 s⁻¹ | < 1e-05 s⁻¹ | –
20 | C8G G13U U30C G43U | < 1e-05 s⁻¹ | – | – | – | –
21 | C8G G43C | < 1e-05 s⁻¹ | < 1e-05 s⁻¹ | < 1e-05 s⁻¹ | < 1e-05 s⁻¹ | < 1e-05 s⁻¹
22 | G9A G13A A14C C61A | < 1e-05 s⁻¹ | – | < 1e-05 s⁻¹ | – | –
23 | G7U G37A | < 1e-05 s⁻¹ | – | < 1e-05 s⁻¹ | – | –

Row | Variant | self-cleavage kobs at 40 uM GlcN6P [1] | self-cleavage kobs at 160 uM GlcN6P [2] | self-cleavage kobs at 10000 uM GlcN6P [3] | self-cleavage kobs at 2500 uM GlcN6P [4] | self-cleavage kobs at 640 uM GlcN6P [5]
24 | G7U G38A | < 1e-05 s⁻¹ | < 1e-05 s⁻¹ | < 1e-05 s⁻¹ | – | –
25 | G7U G35U G38U G59C | < 1e-05 s⁻¹ | – | < 1e-05 s⁻¹ | – | –
26 | C8A G51U C61U | < 1e-05 s⁻¹ | < 1e-05 s⁻¹ | – | < 1e-05 s⁻¹ | < 1e-05 s⁻¹
27 | G7U U31A G32U G41U A48U | < 1e-05 s⁻¹ | – | < 1e-05 s⁻¹ | – | –
28 | G7U G62C | < 1e-05 s⁻¹ | < 1e-05 s⁻¹ | < 1e-05 s⁻¹ | < 1e-05 s⁻¹ | < 1e-05 s⁻¹
29 | G7U G62A | < 1e-05 s⁻¹ | < 1e-05 s⁻¹ | – | < 1e-05 s⁻¹ | < 1e-05 s⁻¹
30 | C8G C61G | < 1e-05 s⁻¹ | < 1e-05 s⁻¹ | < 1e-05 s⁻¹ | < 1e-05 s⁻¹ | < 1e-05 s⁻¹
31 | G9A C70A | < 1e-05 s⁻¹ | < 1e-05 s⁻¹ | < 1e-05 s⁻¹ | < 1e-05 s⁻¹ | < 1e-05 s⁻¹
32 | C8U C10U C70G | 5.14e-05 ± 2.4e-05 s⁻¹ | 8.73e-05 ± 2.6e-05 s⁻¹ | 5.37e-05 ± 1.7e-05 s⁻¹ | 0.000587 ± 0.00021 s⁻¹ | 0.000103 ± 2.5e-05 s⁻¹
33 | C8G G29A | < 1e-05 s⁻¹ | < 1e-05 s⁻¹ | < 1e-05 s⁻¹ | < 1e-05 s⁻¹ | < 1e-05 s⁻¹
34 | C8U C10A | < 1e-05 s⁻¹ | < 1e-05 s⁻¹ | < 1e-05 s⁻¹ | < 1e-05 s⁻¹ | < 1e-05 s⁻¹
35 | C8G G13A G37U G44C A53U G63U | < 1e-05 s⁻¹ | – | – | – | –
36 | C8A G29U G60U | < 1e-05 s⁻¹ | – | < 1e-05 s⁻¹ | – | –
37 | G9A C10A C11U U56G C71U | < 1e-05 s⁻¹ | – | < 1e-05 s⁻¹ | < 1e-05 s⁻¹ | –
38 | G9A A42G G43U C61A | < 1e-05 s⁻¹ | – | – | – | < 1e-05 s⁻¹
39 | C8U G38U G59U C67U | < 1e-05 s⁻¹ | – | – | – | –
40 | C8A A53G | < 1e-05 s⁻¹ | < 1e-05 s⁻¹ | < 1e-05 s⁻¹ | < 1e-05 s⁻¹ | < 1e-05 s⁻¹
41 | C8U U45G | < 1e-05 s⁻¹ | < 1e-05 s⁻¹ | – | < 1e-05 s⁻¹ | < 1e-05 s⁻¹
42 | C8U G44C A53U G63U C68G | < 1e-05 s⁻¹ | – | < 1e-05 s⁻¹ | – | –
43 | G9A C34A G44U U54A C68A | < 1e-05 s⁻¹ | – | – | – | –
44 | C8A G38A | < 1e-05 s⁻¹ | < 1e-05 s⁻¹ | < 1e-05 s⁻¹ | < 1e-05 s⁻¹ | < 1e-05 s⁻¹
45 | C8G U31A A36G | < 1e-05 s⁻¹ | – | – | – | –
46 | G7U G9C | < 1e-05 s⁻¹ | < 1e-05 s⁻¹ | < 1e-05 s⁻¹ | < 1e-05 s⁻¹ | < 1e-05 s⁻¹

— the supplement of paper PMC7125110
